Our source for the Kd values is paper PMC5461540 (2017).

To fix the notation:
T1: FITC labeled MST1 pT340 phosphopeptide (human, UniProt Q13043, phosphothreonine at 340; FITC label (position not given))
T1 sequence (Q13043 whole entry, looked up): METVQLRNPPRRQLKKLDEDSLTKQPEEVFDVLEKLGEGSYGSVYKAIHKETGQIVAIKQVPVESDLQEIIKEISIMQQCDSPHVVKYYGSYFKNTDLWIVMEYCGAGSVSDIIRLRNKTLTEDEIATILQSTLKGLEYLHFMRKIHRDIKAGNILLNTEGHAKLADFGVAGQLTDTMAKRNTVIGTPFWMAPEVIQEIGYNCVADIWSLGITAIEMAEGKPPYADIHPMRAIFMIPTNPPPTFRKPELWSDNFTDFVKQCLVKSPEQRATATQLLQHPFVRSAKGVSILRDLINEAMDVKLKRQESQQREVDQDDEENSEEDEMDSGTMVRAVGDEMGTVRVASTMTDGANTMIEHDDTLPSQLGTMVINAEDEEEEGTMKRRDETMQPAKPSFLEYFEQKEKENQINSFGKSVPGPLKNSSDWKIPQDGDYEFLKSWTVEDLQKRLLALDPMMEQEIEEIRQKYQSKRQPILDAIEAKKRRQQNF

T2: FITC labeled MST1 pT380 phosphopeptide (human, UniProt Q13043, phosphothreonine at 380; FITC label (position not given))
T2 sequence (Q13043 whole entry, looked up): T1 sequence (Q13043 whole entry, looked up)

T3: FITC labeled MST1 pT329 phosphopeptide (human, UniProt Q13043, phosphothreonine at 329; FITC label (position not given))
T3 sequence (Q13043 whole entry, looked up): T1 sequence (Q13043 whole entry, looked up)

T4: yeast Mob1 (yeast, UniProt P40484 79-314)
T4 chain: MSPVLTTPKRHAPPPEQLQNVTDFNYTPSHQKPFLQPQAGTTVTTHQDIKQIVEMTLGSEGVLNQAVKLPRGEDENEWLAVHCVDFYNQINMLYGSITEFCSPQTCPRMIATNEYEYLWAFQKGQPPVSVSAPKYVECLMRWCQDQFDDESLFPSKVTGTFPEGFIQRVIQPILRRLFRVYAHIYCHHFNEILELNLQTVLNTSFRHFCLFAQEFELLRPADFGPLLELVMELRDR

T5: MOB1B (tags cleaved) (human, UniProt Q7L9L4-2 2-216)
T5 chain: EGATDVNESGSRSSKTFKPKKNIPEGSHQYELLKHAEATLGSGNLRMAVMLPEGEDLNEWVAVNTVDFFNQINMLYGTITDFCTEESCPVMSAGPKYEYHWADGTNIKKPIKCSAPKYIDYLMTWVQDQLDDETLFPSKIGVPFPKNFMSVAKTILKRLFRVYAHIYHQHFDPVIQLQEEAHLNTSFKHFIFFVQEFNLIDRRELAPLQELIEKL

T6: MOB3C (human, UniProt Q70IA8 2-216)
T6 chain: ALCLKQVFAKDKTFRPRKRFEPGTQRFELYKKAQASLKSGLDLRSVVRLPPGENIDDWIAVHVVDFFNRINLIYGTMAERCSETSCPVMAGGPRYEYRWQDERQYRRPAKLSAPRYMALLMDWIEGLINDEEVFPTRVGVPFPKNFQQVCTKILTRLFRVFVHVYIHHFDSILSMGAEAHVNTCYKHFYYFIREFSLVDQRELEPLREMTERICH

T7: MOB3B (human, UniProt Q86TA1 2-216)
T7 chain: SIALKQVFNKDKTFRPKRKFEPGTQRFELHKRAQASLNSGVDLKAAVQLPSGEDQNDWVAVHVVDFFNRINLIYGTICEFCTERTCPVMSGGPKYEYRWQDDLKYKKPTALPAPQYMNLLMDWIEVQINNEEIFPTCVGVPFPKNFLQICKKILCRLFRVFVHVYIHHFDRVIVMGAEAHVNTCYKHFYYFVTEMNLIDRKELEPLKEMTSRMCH

T8: MOB3A (human, UniProt Q96BX8 2-217)
T8 chain: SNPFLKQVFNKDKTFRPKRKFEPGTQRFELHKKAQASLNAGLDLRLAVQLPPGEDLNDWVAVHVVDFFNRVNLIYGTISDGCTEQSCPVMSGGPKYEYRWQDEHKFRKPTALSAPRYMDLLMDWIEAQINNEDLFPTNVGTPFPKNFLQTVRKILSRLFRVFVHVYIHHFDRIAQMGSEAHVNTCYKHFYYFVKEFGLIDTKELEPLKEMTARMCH

B1: MOB1A wild-type (natural protein)
chain: SFLFSSRSSKTFKPKKNIPEGSHQYELLKHAEATLGSGNLRQAVMLPEGEDLNEWIAVNTVDFFNQINMLYGTITEFCTEASCPVMSAGPRYEYHWADGTNIKKPIKCSAPKYIDYLMTWVQDQLDDETLFPSKIGVPFPKNFMSVAKTILKRLFRVYAHIYHQHFDSVMQLQEEAHLNTSFKHFIFFVQEFNLIDRRELAPLQELIEKLGSKDR
B2: FITC labeled phosphorylated MST1 T353 peptide (peptide)
chain: VASTMTDGANTMIEH
modifications: also: phosphothreonine at 353 (place in peptide not given here), FITC label, position not given here
B3: FITC labeled phosphorylated MST1 T367 peptide (peptide)
chain: DDTLPSQLGTMVINA
modifications: also: phosphothreonine at 367 (place in peptide not given here), FITC label, position not given here

For assay [1], the target named is T1, FITC labeled MST1 pT340 phosphopeptide. Briefly: FP.
The target in assay [2] is T2, FITC labeled MST1 pT380 phosphopeptide. Put plainly: FP.
Assay [3] addresses T3, FITC labeled MST1 pT329 phosphopeptide. Briefly: FP.
Assay [4] concerns the target T2, FITC labeled MST1 pT380 phosphopeptide. Briefly: FP. The source holds these as a separate data set.
Assay [5] deals with MST1 pT329/pT340 peptide. Put plainly: FP; doubly phosphorylated pT329/pT340.
Assay [6] addresses MST1 pT380/pT387 peptide. Briefly: FP; doubly phosphorylated pT380/pT387.
Assay [7] has as its target T1, FITC labeled MST1 pT340 phosphopeptide. Put plainly: FP. This is another data set of the same source.
Assay [8] concerns the target T3, FITC labeled MST1 pT329 phosphopeptide. Put plainly: FP. This is another data set of the same source.
Assay [9] addresses B1. Put plainly: FP.
Assay [10] deals with T4, yeast Mob1. Briefly: FP.
Assay [11] addresses B1. Put plainly: FP.
Assay [12] has as its target T5, MOB1B (tags cleaved). Put plainly: FP.
Assay [13] has as its target T6, MOB3C. Put plainly: FP.
Assay [14] has as its target T4, yeast Mob1. Briefly: FP.
In assay [15] the target is T7, MOB3B. Put plainly: FP.
The target of assay [16] is T8, MOB3A. Put plainly: FP.

Read-outs that look alike come from different tables or passages of the source. Where no end group is shown, it is not given here. [ ]: non-standard residue; d: D form. pS = N[C@@H](COP(=O)(O)O)C(=O)O

A word on the Kd: it is the constant that tells how readily two partners part at equilibrium. With B1, the dissociation constant Kd in [1] worked out at 66.1 µM; in assay [2], 185 µM; in [3], 46.5 µM; in assay [4], 186 µM; in assay [5], 49 µM; in assay [6], 95 µM. The Kd in assay [7] was 66 µM; in [8] it was 47 µM.
YH[pS]VVRYA (also: FITC label, position not given here) [optimized Nud1-like phosphoserine containing peptide (FITC labeled)]: the Kd in [9] came to 30 µM; in [10], 0.4 µM.
Take B2: the Kd in [11] worked out at 0.31 µM.
For B3, the dissociation constant Kd was 0.78 µM in [12]; 2.3 µM in assay [13]; 29.3 µM in [14]; 2.6 µM in [15]; 2.9 µM in assay [16]; 0.8 µM in [9]. Moreover, the Kd in assay [10] was 29 µM; in assay [11], 0.58 µM.
